Measurements taken from patent publication US20210155907.

Assays:
Experiment in all cases: cell_activity
[1] = system: TAL1-Tet1-CD (TAL effector repeat array to KLF4 site 1, Gly3Ser linker, Tet1 catalytic domain); details: CpG demethylation 15 bp downstream of site (32.5% at 9 bp); K562 cells, bisulfite sequencing
[2] = system: TAL2-Tet1-CD (KLF4 site 2); details: CpG demethylation 17 bp downstream (28.2% at 27 bp, none at 1 and 3 bp); K562 cells
[3] = system: TAL3-Tet1-CD (KLF4 site 3); details: CpG demethylation at 22, 36, 116 and 143 bp downstream; K562 cells
[4] = system: TAL4-Tet1-CD (KLF4 site 4); details: CpG demethylation 13 bp downstream, no other CpGs significant; K562 cells
[5] = system: KLF4 six-finger ZF-Tet1 fusion (engineered); details: CpG demethylation 6 bp downstream (25% at 24 bp); K562 cells; one of two KLF4 ZF-Tet1 proteins

For “GGGGGCGGGCGGAGCCTTGGGGTCACCAAGAGCCACTGAACGAGGGTAAGGAGCGGCCACCGCGCGGACTCCGCAACCTTCCCGGGATAGCTTCCGTGTCCTTGGCTCAGCTGTGTATGCCCGTGGTGCGAGCACTGCGGAGCCGCCTGGGGCGCAAGCCGGGTCTTCACCAGTCCCCGGGCGCGCTGTCGGTAGGGCGGGCGCTCTCGGGCCACCGGGCGGGAGGTGGCCGCGTCCCCAGACACTGGCTGGGCCAGAGTGAGTTTAGCGCGTAGGCGGC (double strand) [KLF4 intron 1-2 TAL site 1]”, the activity [1] was 45.4%.

“GGGGGCGGGCGGAGCCTTGGGGTCACCAAGAGCCACTGAACGAGGGTAAGGAGCGGCCACCGCGCGGACTCCGCAACCTTCCCGGGATAGCTTCCGTGTCCTTGGCTCAGCTGTGTATGCCCGTGGTGCGAGCACTGCGGAGCCGCCTGGGGCGCAAGCCGGGTCTTCACCAGTCCCCGGGCGCGCTGTCGGTAGGGCGGGCGCTCTCGGGCCACCGGGCGGGAGGTGGCCGCGTCCCCAGACACTGGCTGGGCCAGAGTGAGTTTAGCGCGTAGGCGGC (double strand) [KLF4 intron 1-2 TAL site 2]” gave an activity [2] of 36.5%.

In the case of “GGGGGCGGGCGGAGCCTTGGGGTCACCAAGAGCCACTGAACGAGGGTAAGGAGCGGCCACCGCGCGGACTCCGCAACCTTCCCGGGATAGCTTCCGTGTCCTTGGCTCAGCTGTGTATGCCCGTGGTGCGAGCACTGCGGAGCCGCCTGGGGCGCAAGCCGGGTCTTCACCAGTCCCCGGGCGCGCTGTCGGTAGGGCGGGCGCTCTCGGGCCACCGGGCGGGAGGTGGCCGCGTCCCCAGACACTGGCTGGGCCAGAGTGAGTTTAGCGCGTAGGCGGC (double strand) [KLF4 intron 1-2 TAL site 3]”, the activity [3] is reported as over 25%.

Work on “GGGGGCGGGCGGAGCCTTGGGGTCACCAAGAGCCACTGAACGAGGGTAAGGAGCGGCCACCGCGCGGACTCCGCAACCTTCCCGGGATAGCTTCCGTGTCCTTGGCTCAGCTGTGTATGCCCGTGGTGCGAGCACTGCGGAGCCGCCTGGGGCGCAAGCCGGGTCTTCACCAGTCCCCGGGCGCGCTGTCGGTAGGGCGGGCGCTCTCGGGCCACCGGGCGGGAGGTGGCCGCGTCCCCAGACACTGGCTGGGCCAGAGTGAGTTTAGCGCGTAGGCGGC (double strand) [KLF4 intron 1-2 TAL site 4]” yielded an activity [4] of 37%.

KLF4 locus ZF site showed an activity [5] of 68%.
